One may read the Kd as the equilibrium constant for the complex coming apart. Lower therefore signals tighter binding.

The target of assay [1] is T1, Hall (A1) toxin (UniProt P0DPI0 2-1296).
For assay [2], the target named is T2, Honey (A2) toxin (UniProt Q45894 2-1296).
The target in assay [3] is T1, Hall (A1) toxin. The source holds these as a separate data set.
Assay [4] deals with T2, Honey (A2) toxin. This is another data set of the same source.

T2 sequence (Q45894 2-1296): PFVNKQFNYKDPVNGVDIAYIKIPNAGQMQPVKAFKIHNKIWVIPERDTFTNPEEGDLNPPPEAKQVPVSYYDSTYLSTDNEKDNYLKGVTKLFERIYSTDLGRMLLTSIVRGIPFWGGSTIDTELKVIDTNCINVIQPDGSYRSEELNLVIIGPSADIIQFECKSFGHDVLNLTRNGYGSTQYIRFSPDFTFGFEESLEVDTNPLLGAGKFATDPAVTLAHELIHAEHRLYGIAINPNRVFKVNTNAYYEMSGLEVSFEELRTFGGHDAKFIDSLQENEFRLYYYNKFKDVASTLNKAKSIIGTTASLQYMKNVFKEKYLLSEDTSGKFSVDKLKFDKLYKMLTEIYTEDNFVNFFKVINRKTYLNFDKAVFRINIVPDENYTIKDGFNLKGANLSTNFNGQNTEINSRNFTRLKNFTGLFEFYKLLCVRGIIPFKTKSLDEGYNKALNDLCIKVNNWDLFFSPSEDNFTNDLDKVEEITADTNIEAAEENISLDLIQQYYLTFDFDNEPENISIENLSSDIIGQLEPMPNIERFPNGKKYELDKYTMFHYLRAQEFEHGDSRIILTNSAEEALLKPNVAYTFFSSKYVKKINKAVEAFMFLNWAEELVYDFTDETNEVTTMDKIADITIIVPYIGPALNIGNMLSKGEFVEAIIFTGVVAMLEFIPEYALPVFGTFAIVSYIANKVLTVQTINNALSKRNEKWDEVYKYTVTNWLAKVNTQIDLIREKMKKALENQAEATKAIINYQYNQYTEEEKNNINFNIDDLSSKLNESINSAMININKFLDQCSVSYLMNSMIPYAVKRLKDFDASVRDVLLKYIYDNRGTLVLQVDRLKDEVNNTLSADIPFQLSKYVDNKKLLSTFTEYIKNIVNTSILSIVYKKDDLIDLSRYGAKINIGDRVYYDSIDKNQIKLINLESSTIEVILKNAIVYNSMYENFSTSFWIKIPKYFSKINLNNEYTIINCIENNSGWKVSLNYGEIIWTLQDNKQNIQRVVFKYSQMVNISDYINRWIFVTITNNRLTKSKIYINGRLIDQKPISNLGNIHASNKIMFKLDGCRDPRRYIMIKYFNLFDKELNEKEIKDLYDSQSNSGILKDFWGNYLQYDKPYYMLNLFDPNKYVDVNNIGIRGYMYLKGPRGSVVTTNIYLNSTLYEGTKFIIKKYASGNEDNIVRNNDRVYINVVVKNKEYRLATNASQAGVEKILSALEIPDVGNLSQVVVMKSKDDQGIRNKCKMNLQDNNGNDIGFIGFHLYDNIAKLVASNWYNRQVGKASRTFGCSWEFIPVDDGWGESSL

B1: 3D12 (wild type, as tested in Table 12) (antibody, V domains shown)
VH: QVQLVQSGGGVVHPGRSLKLSCAGSGFTFSDYDMHWVRQAPGKGLEWVAVMWFDGTEKYSAESVKGRFTISRDNSKNTLFLQMNSLRADDTAVYYCAREPDWLLWGDRGALDVWGQGTTVTVSS
VL: DIVMTQSPSTLSASVGDRVTITCRASQSISSWLAWYQQKPGKAPKLLMYEASSLESGVPSRFSGSGSGTEFTLTISSLQPDDFAAYYCQHYNTYPYTFGQGTKLEIKR
In the case of B1, the dissociation constant Kd with Hall (A1) toxin [1] was 0.94 nM; in the assay with Honey (A2) toxin [2], 2.2 nM.

B2: 3D12.3-1 (RAZ1) (antibody, V domains shown)
VH: QVQLVQSGGGVVHPGRSLKLSCAGSGFTFSDYDMHWVRQAPGKGLEWVAVMWFDGTEKYSAESVKGRFTISRDNSKNTLFLQMNSLRADDTAVYYCAREPDWLLWGDRGALDVWGQGTTVTVSS
VL: DIVMTQSPSTLSASVGDRVTITCWASQSISSRLAWYQQKPGKAPKLLMYEATSLGSGVPSRFSGSGSGTEFTLTISSLQPDDFAAYYCQHYDTYPYTFGQGTKLEIKR
B2: the “fold tighter binding than wild type 3D12” value with Hall (A1) toxin [3] and with Honey (A2) toxin [4] was > 10 fold each time. In addition, the Kd with Hall (A1) toxin [1] is 0.017 nM; with Honey (A2) toxin [2] it was 0.07 nM.

B3: 3D12.3-8 (antibody, V domains shown)
VH: QVQLVQSGGGVVHPGRSLKLSCAGSGFTFSDYDMHWVRQAPGKGLEWVAVIWFDGTEKYSAESVKGRFTISRDNSKNTLFLQMNSLRADDTAVYYCAREPDWLLWGDRGALDVWGQGTTVTVSS
VL: DIVMTQSPSTLSASVGDRVTITCRASQSISSWLAWYQQKPGKAPKLLMYGASSLGSGVPSRFSGSGSGTEFTLTISSLHPDDFAAYYCQHYNTYPYTFGQGTKLEIKR
Regarding B3, the “fold tighter binding than wild type 3D12” value with Hall (A1) toxin [3] and with Honey (A2) toxin [4] was > 10 fold throughout. Moreover, the Kd was found to be 0.021 nM in the assay with Hall (A1) toxin [1] and 0.067 nM with Honey (A2) toxin [2].

B4: 3D12.3-10 (antibody, V domains shown)
VH: QVQLVQSGGGVVHPGRSLKLSCAGSGFTFSDYDMHWVRQAPGKGFEWVAVMWFDGTEKYSAESVKGRFTISRDNSKNTLFLQMNSLRADDTAVYYCAREPDRLLWGDRGALDVWGQGTTVTVSS
VL: DIVMTQSPSTLSASVGDRVTITCRASQSISSWLAWYQQKPGKAPKLLMYEASSLGRGVPSRFSGSGSGTEFTLTISSLQPDDFAAYYCQHYSTYPYTFGQGTKLEIKR
Take B4: the “fold tighter binding than wild type 3D12” value with Hall (A1) toxin [3] and with Honey (A2) toxin [4] was > 10 fold throughout. The dissociation constant (Kd) with Hall (A1) toxin [1] came out at 0.028 nM; with Honey (A2) toxin [2], 0.081 nM.

B5: AR2 (affinity improved HuC25) (antibody, V domains shown)
VH: QVQLQESGGGLVQPGGSLRLSCAASGFTFSDHYMYWVRQAPGKGLEWVATISDGGSYTYYPDSVKGRFTTSRDNSKNTLYLQMNSLRAEDTAIYYCSRYRYDDAMDYWGQGTLVTVSS
VL: EIVLTQSPATLSLSPGERATISCRASESVDSYGHSFMQWYQQKPGQAPRLLIYRASNLEPGIPARFSGSGSGTDFTLTISSLEPEDFAVYYCQQGNEVPFTFGQGTKVEIKR
In the assay with Hall (A1) toxin [1], B5 showed a Kd of 0.047 nM.

B6: AR1 (affinity improved HuC25) (antibody, V domains shown)
VH: QVQLQESGGGLVQPGGSLRLSCAASGFTFSDYYMYWVRQAPGKGLEWVATISDGGSYTYYPDSVKGRFTISRDNSKNTLYLQMNSLRAEDTAIYYCSRYRYDDAMDYWGQGTLVTVSS
VL: EIVLTQSPATLSLSPGERATISCRASESVDSYGHSFMQWYQQKPGQAPRLLIYRASNLEPGIPARFSGSGSGTDFTLTISSLEPEDFAVYYCQQGNEVPFTFGQGTKVEIKR
As for B6, the equilibrium dissociation constant (Kd) with Hall (A1) toxin [1] was 0.2 nM; with Honey (A2) toxin [2], 100 nM.

B7: WR1(V) (HuC25 derivative) (antibody, V domains shown)
VH: QVQLQESGGGLVQPGGSLRLSCAASGFTSSDHYMYWVRQAPGKGLEWVATISDGGSYTYYPDSVKGRFTVSRDNSKNTLYLQMNSLRAEDTAIYYCSRYRYDDAMDYWGQGTLVTVSS
VL: EIVLTQSPATLSLSPGERATISCRASESVDSYGHSFMQWYQQKPGQAPRLLIYRASNLEPGIPARFSGSGSGTDFTLTISSLEPEDFAVYYCQQGNEVPFTFGQGTKVEIKR
Regarding B7, the figures for the Kd with Hall (A1) toxin [1] and with Honey (A2) toxin [2] were 0.45 nM and 9 nM, respectively.

B8: WR1(T) (HuC25 derivative) (antibody, V domains shown)
VH: QVQLQESGGGLVQPGGSLRLSCAASGFTSSDHYMYWVRQAPGKGLEWVATISDGGSYTYYPDSVKGRFTTSRDNSKNTLYLQMNSLRAEDTAIYYCSRYRYDDAMDYWGQGTLVTVSS
VL: EIVLTQSPATLSLSPGERATISCRASESVDSYGHSFMQWYQQKPGQAPRLLIYRASNLEPGIPARFSGSGSGTDFTLTISSLEPEDFAVYYCQQGNEVPFTFGQGTKVEIKR
With B8, the dissociation constant (Kd) was 0.31 nM with Hall (A1) toxin [1] and 3.7 nM with Honey (A2) toxin [2].

B9: Humanized C25 (HuC25) (antibody, V domains shown)
VH: QVQLQESGGGLVQPGGSLRLSCAASGFTFSDYYMYWVRQAPGKGLEWVATISDGGSYTYYPDSVKGRFTISRDNSKNTLYLQMNSLRAEDTAMYYCSRYRYDDAMDYWGQGTLVTVSS
VL: EIVLTQSPATLSLSPGERATISCRASESVDSYGHSFMQWYQQKPGQAPRLLIYRASNLEPGIPARFSGSGSGTDFTLTISSLEPEDFAVYYCQQSNEDPFTFGQGTKVEIKR
Regarding B9, the figures for the equilibrium dissociation constant (Kd) with Hall (A1) toxin [1] and in the assay with Honey (A2) toxin [2] were 1.24 nM and 250 nM, respectively.

The values above are taken from patent publication US20090324606A1 (published 2009).
